Earlier results in paper PMC7511354.

Target: CYP2C9 (Homo sapiens) (UniProt P11712)
Chain of UniProt P11712 (P11712 whole entry): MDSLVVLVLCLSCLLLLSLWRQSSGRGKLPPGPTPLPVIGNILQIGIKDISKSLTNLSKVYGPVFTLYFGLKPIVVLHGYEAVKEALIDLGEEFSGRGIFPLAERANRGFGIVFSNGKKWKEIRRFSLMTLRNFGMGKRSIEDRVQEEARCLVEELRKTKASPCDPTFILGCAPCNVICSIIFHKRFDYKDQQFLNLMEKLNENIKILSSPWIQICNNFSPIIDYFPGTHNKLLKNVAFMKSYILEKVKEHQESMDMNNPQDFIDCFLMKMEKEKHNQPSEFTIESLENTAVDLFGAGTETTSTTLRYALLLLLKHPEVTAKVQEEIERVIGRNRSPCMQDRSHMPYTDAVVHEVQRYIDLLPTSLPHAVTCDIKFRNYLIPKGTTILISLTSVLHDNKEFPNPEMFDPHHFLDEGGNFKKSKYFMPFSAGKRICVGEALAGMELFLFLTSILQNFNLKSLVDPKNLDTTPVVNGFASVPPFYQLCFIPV

Kd: 794 nM
Substance: cytochrome b5 (from UniProt P00167)
